# B1: 26S proteasome non-ATPase regulatory subunit 5 (Drosophila melanogaster (Fruit fly)), Q9VYG1 (parent)
# chain: MEMEDNWWVTKLKALESKPQRLDALTAMNSAIAKEAALPRQIIERLLTTDQLYDCANPAADSHVPKDQAVDVTLELLCHCLDQLAMDTADEQLSSLLRRGLTHSNPALRAQVLASLFKKLLRQLTVGQVLTLPNNELIFLILDELKQPDTQSTSLAINILSIVLPQRISNADVQAKLVQLLKQNEIVRCRAYELAVVLAKKSATLLSDVTFILDAALSELDNDDVLLQASVMELLVPLAEQNHGLSYMERRRVLDIISYRVQRVEEHPLDALLVPSIMKFFGKISVYQPLKIIGGYPHMLACLFMQLQSEDESILPTAMDTLANLATTPQGKILLNMHFSGAMEKSFKKYGSHTKKLSAHIKKRLLNSLDVIYDFKTPPATEIINIGKNWYECFAGGAHANIIMDLINTPFPDLQMAALSFLKTICKYNWGIVALKNTGGAVEFLLSRQKDLHRDIKYMKWQIMEILSASAEFSPTETIRFTAYVNEGPYHVQADLDVATEPQGNA
# partner: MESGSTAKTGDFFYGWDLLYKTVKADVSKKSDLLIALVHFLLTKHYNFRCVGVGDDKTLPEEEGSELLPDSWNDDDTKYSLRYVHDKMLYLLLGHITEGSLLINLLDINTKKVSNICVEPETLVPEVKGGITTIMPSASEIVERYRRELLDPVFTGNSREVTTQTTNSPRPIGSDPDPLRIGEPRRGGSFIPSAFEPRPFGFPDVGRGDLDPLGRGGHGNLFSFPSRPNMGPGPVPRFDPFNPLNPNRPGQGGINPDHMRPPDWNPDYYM
# B2: Proteasome inhibitor PI31 subunit (Drosophila melanogaster (Fruit fly)), Q9V637 (parent)
# chain: B1 partner
# partner: B1 chain
# B3: Proteasome inhibitor PI31 subunit (Drosophila melanogaster (Fruit fly)), Q9V637 (parent)
# chain: B1 partner
# partner: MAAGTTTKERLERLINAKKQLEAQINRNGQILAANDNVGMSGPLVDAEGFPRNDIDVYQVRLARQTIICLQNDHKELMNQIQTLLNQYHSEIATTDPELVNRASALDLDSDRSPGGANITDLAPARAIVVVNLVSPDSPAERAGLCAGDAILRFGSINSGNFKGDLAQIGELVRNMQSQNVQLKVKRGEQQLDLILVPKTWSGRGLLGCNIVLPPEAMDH
# B4: Proteasome inhibitor PI31 subunit (Drosophila melanogaster (Fruit fly)), Q9V637 (parent)
# chain: B1 partner
# partner: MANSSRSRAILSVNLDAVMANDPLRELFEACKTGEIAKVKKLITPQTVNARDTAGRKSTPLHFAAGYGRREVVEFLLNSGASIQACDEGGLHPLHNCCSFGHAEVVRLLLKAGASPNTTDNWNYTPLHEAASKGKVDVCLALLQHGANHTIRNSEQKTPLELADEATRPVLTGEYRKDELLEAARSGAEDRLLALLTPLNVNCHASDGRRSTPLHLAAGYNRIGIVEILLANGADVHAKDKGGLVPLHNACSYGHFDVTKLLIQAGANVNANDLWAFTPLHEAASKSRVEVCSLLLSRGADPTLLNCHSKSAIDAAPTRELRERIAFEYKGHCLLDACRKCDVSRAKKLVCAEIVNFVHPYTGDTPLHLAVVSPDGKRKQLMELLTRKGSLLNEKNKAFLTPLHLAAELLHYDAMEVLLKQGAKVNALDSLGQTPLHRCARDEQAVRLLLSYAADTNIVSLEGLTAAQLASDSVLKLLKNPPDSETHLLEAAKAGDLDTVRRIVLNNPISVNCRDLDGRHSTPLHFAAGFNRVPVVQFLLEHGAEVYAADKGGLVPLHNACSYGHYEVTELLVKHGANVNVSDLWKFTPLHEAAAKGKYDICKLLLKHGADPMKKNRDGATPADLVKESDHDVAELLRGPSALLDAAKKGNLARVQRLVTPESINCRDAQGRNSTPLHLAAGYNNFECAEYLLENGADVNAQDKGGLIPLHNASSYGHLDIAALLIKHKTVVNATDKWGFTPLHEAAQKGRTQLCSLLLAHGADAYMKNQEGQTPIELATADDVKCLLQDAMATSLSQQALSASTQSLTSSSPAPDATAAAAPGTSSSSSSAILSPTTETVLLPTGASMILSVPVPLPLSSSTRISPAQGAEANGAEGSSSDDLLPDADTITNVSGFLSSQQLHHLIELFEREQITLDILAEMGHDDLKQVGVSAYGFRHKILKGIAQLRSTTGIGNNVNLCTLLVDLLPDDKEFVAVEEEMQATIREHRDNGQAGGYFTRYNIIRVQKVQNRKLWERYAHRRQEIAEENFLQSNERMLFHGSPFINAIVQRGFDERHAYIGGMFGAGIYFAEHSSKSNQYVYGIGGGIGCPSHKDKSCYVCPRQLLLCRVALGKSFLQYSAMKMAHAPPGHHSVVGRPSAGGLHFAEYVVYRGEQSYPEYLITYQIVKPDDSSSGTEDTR
# B5: 26S proteasome non-ATPase regulatory subunit 9 (Drosophila melanogaster (Fruit fly)), Q9VFS8 (parent)
# chain: B3 partner
# partner: B1 partner
# Variants of: B1
# Conditions: with psmf1_drome PI31, Q9V637
row,Variant,effect of a mutation on the interaction
1,MEMEDNWWVTKLKALESKPQRLDALTAMNSAIAKEAALPRQIIERLLTTDQLYDCANPAADSHVPKDQAVDVTLELLCHCLDQLAMDTADEQLSSLLRRGLTHSNPALRAQVLASLFKKLLRQLTVGQVLTLPNNELIFLILDELKQPDTQSTSLAINILSIVLPQRISNADVQAKLVQLLKQNEIVRCRAYELAVVLAKKSATLLSDVTFILDAALSELDNDDVLLQASVMELLVPLAEQNHGLSYMERRRVLDIISYRVQAVEEHPLDALLVPSIMKFFGKISVYQPLKIIGGYPHMLACLFMQLQSEDESILPTAMDTLANLATTPQGKILLNMHFSGAMEKSFKKYGSHTKKLSAHIKKRLLNSLDVIYDFKTPPATEIINIGKNWYECFAGGAHANIIMDLINTPFPDLQMAALSFLKTICKYNWGIVALKNTGGAVEFLLSRQKDLHRDIKYMKWQIMEILSASAEFSPTETIRFTAYVNEGPYHVQADLDVATEPQGNA [R263A],disrupting interaction strength
2,MEMEDNWWVTKLKALESKPQRLDALTAMNSAIAKEAALPRQIIARLLTTDQLYDCANPAADSHVPKDQAVDVTLELLCHCLDQLAMDTADEQLSSLLRRGLTHSNPALRAQVLASLFKKLLRQLTVGQVLTLPNNELIFLILDELKQPDTQSTSLAINILSIVLPQRISNADVQAKLVQLLKQNEIVRCRAYELAVVLAKKSATLLSDVTFILDAALSELDNDDVLLQASVMELLVPLAEQNHGLSYMERRRVLDIISYRVQRVEEHPLDALLVPSIMKFFGKISVYQPLKIIGGYPHMLACLFMQLQSEDESILPTAMDTLANLATTPQGKILLNMHFSGAMEKSFKKYGSHTKKLSAHIKKRLLNSLDVIYDFKTPPATEIINIGKNWYECFAGGAHANIIMDLINTPFPDLQMAALSFLKTICKYNWGIVALKNTGGAVEFLLSRQKDLHRDIKYMKWQIMEILSASAEFSPTETIRFTAYVNEGPYHVQADLDVATEPQGNA [E44A],disrupting interaction strength

# Variants of: B2
# Conditions: with psmd5_drome psmd5, Q9VYG1
row,Variant,effect of a mutation on the interaction
1,MESGSTAKTGDFFYGWDLLYKTVKADVSKKSDLLIALVHFLLTKHYNFRCVGVGDDKTLPEEEGSELLPDSWNDDDTKYSLRYVHDKMLYLLLGHITEGSLLINLLDINTKKVSNICVEPETLVPEVKGGITTIMPSASEIVERYRRELLDPVFTGNSREVTTQTTNSPRPIGSDPDPLRIGEPRRGGSFIPSAFEPRPFGFPDVGRGDADPLGRGGHGNLFSFPSRPNMGPGPVPRFDPFNPLNPNRPGQGGINPDHMRPPDWNPDYYM [L210A],disrupting interaction strength
2,MESGSTAKTGDFFYGWDLLYKTVKADVSKKSDLLIALVHFLLTKHYNFRCVGVGDDKTLPEEEGSELLPDSWNDDDTKYSLRYVHDKMLYLLLGHITEGSLLINLLDINTKKVSNICVEPETLVPEVKGGITTIMPSASEIVERYRRELLDPVFTGNSREVTTQTTNSPRPIGSDPDPLRIGEPRRGGSFIPSAFEPRPFGFPDVGRGDLDPLGRGGHGNLFSFPSRPNMGPGPVPRFDPANPLNPNRPGQGGINPDHMRPPDWNPDYYM [F241A],disrupting interaction strength

# Variants of: B3
# Conditions: with psmd9_drome psmd9, Q9VFS8
row,Variant,effect of a mutation on the interaction
1,MESGSTAKTGDFFYGWDLLYKTVKADVSKKSDLLIALVHFLLTKHYNFRCVGVGDDKTLPEEEGSELLPDSWNDDDTKYSLRYVHDKMLYLLLGHITEGSLLINLLDINTKKVSNICVEPETLVPEVKGGITTIMPSASEIVERYRRELLDPVFTGNSREVTTQTTNSPRPIGSDPDPLRIGEPRRGGSFIPSAFEPRPFGFPDVGRGDADPLGRGGHGNLFSFPSRPNMGPGPVPRFDPFNPLNPNRPGQGGINPDHMRPPDWNPDYYM [L210A],disrupting interaction strength
2,MESGSTAKTGDFFYGWDLLYKTVKADVSKKSDLLIALVHFLLTKHYNFRCVGVGDDKTLPEEEGSELLPDSWNDDDTKYSLRYVHDKMLYLLLGHITEGSLLINLLDINTKKVSNICVEPETLVPEVKGGITTIMPSASEIVERYRRELLDPVFTGNSREVTTQTTNSPRPIGSDPDPLRIGEPRRGGSFIPSAFEPRPFGFPDVGRGDLDPLGRGGHGNLFSFPSRPNMGPGPVPRFDPANPLNPNRPGQGGINPDHMRPPDWNPDYYM [F241A],disrupting interaction strength

# Variants of: B4
# Conditions: with tnks_drome Tnks
row,Variant,effect of a mutation on the interaction
1,MESGSTAKTGDFFYGWDLLYKTVKADVSKKSDLLIALVHFLLTKHYNFRCVGVGDDKTLPEEEGSELLPDSWNDDDTKYSLRYVHDKMLYLLLGHITEGSLLINLLDINTKKVSNICVEPETLVPEVKGGITTIMPSASEIVERYRRELLDPVFTGNSREVTTQTTNSPRPIGSDPDPLRIGEPRRGGSFIPSAFEPRPFGFPDVGRGDADPLGRGGHGNLFSFPSRPNMGPGPVPRFDPFNPLNPNRPGQGGINPDHMRPPDWNPDYYM [L210A],disrupting interaction strength
2,MESGSTAKTGDFFYGWDLLYKTVKADVSKKSDLLIALVHFLLTKHYNFRCVGVGDDKTLPEEEGSELLPDSWNDDDTKYSLRYVHDKMLYLLLGHITEGSLLINLLDINTKKVSNICVEPETLVPEVKGGITTIMPSASEIVERYRRELLDPVFTGNSREVTTQTTNSPRPIGSDPDPLRIGEPRRGGSFIPSAFEPRPFGFPDVGRGDLDPLGRGGHGNLFSFPSRPNMGPGPVPRFDPANPLNPNRPGQGGINPDHMRPPDWNPDYYM [F241A],disrupting interaction strength
3,MESGSTAKTGDFFYGWDLLYKTVKADVSKKSDLLIALVHFLLTKHYNFACVGVADDKTLPEEEGSELLPDSWNDDDTKYSLRYVHDKMLYLLLGHITEGSLLINLLDINTKKVSNICVEPETLVPEVKGGITTIMPSASEIVERYRRELLDPVFTGNSREVTTQTTNSPRPIGSDPDPLRIGEPRRGGSFIPSAFEPRPFGFPDVGRGDLDPLGRGGHGNLFSFPSRPNMGPGPVPRFDPFNPLNPNRPGQGGINPDHMRPPDWNPDYYM [R49A;G54A],disrupting interaction strength

# Variants of: B5
# Conditions: with psmf1_drome PI31, Q9V637
row,Variant,effect of a mutation on the interaction
1,MAAGTTTKARLERLINAKKQLEAQINRNGQILAANDNVGMSGPLVDAEGFPRNDIDVYQVRLARQTIICLQNDHKELMNQIQTLLNQYHSEIATTDPELVNRASALDLDSDRSPGGANITDLAPARAIVVVNLVSPDSPAERAGLCAGDAILRFGSINSGNFKGDLAQIGELVRNMQSQNVQLKVKRGEQQLDLILVPKTWSGRGLLGCNIVLPPEAMDH [E9A],disrupting interaction strength
2,MAAGTTTKERLERLINAKKQLEAQINRNGQILAANDNVGMSGPLVDAEGFPRNDIDVYQVRLARQTIICLQNDHKELMNQIQTLLNQYHSEIATTDPELVNRASALDLDSDRSPGGANITDLAPARAIVVVNLVSPDSPAERAGLCAGDAILRFGSINSGNFKGDLAQIGELVRNMQSQNVQLKVKAGEQQLDLILVPKTWSGRGLLGCNIVLPPEAMDH [R187A],disrupting interaction strength

# Source: IntAct's records for PubMed 23622245
